Biological target: bACE2_(Ra5538)-Fc (Rhinolophus affinis)
Assay: BLI

“SARS-CoV-2-RBD-monomer (from UniProt P0DTC2) (domain or fragment)” showed a Kd of 705 nM.
